T1: cynomolgus monkey (Macaca fascicularis) transferrin receptor 1 (cynomolgus monkey (Macaca fascicularis), UniProt Q5RDH6 89-760 (Pongo abelii entry), limits assumed)
T1 construct: Recombinant protein used in ELISA and SPR; also called cTfR1; cyno TfR1
T1 chain: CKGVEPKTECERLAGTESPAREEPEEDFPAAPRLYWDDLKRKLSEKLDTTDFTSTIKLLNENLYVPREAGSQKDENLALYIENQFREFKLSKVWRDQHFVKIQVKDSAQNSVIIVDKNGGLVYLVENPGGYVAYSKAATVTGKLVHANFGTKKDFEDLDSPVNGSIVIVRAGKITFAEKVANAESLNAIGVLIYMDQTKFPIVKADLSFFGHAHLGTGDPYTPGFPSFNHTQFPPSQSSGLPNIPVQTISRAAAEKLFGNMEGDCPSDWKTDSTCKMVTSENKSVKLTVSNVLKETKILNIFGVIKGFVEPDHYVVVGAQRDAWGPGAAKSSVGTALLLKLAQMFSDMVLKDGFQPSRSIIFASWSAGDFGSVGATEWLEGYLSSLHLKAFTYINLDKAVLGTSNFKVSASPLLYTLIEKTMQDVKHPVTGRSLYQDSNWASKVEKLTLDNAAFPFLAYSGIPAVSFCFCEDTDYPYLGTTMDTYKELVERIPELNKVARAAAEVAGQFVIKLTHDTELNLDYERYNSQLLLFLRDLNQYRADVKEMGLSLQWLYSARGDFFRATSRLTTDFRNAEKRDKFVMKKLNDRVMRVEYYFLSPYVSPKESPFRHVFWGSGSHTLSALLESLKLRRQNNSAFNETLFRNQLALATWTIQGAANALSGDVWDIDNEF


Experiments:
[1] = biological target: T2, recombinant human transferrin receptor 1 (human, UniProt P02786 89-760); assay: ELISA, DMPK oligo (ASO300) conjugate binding to hTfR1
T2 construct: Recombinant protein used in ELISA and SPR; also called hTfR1; huTfR1

[2] = biological target: T2, recombinant human transferrin receptor 1; assay: ELISA, plate-coated human TfR1, Fab-ASO300 conjugate; printed as 'Conjugate binding affinity ELISA'
[3] = biological target: T1, cynomolgus monkey (Macaca fascicularis) …; assay: ELISA, plate-coated cyno TfR1, Fab-ASO300 conjugate; printed as 'Conjugate binding affinity ELISA'
[4] = biological target: T1, cynomolgus monkey (Macaca fascicularis) …; assay: ELISA, DMPK oligo (ASO300) conjugate binding to cyno TfR1

T2 sequence (P02786 89-760 limits assumed): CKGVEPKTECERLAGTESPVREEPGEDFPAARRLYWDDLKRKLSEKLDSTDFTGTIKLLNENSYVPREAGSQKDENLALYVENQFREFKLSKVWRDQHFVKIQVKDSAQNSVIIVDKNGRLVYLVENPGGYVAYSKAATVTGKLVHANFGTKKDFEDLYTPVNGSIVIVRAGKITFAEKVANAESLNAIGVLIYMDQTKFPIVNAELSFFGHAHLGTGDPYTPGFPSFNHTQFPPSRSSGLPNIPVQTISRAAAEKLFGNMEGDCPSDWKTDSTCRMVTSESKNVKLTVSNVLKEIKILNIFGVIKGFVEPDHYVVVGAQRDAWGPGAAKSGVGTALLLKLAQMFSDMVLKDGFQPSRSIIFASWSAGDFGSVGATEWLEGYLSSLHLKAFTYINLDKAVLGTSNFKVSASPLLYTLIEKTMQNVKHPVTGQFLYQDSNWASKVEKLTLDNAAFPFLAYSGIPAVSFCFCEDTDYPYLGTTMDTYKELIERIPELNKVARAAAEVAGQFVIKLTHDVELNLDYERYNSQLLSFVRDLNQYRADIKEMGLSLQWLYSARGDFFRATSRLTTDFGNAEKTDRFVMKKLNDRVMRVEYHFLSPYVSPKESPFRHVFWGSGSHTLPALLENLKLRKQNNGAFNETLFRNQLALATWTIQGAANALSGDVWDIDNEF

| Binder | EC50 [1] [nM] | EC50 [2] [nM] | EC50 [3] [nM] | EC50 [4] [nM] |
| --- | --- | --- | --- | --- |
| 3M12 (VH3/Vk2) Fab conjugated to DMPK-targeting oligonucleotide ASO300 (Fab, V domains shown, Fab covalently conjugated to antisense oligonucleotide ASO300 (linker of Formula (C)); also called 3M12 (VH3/Vk2) conjugate; DMPK oligo conjugate) VH: QVQLQESGPGLVKPSQTLSLTCSVTGYSITSGYYWNWIRQPPGKGLEWMGYITFDGANNYNPSLKNRVSISRDTSKNQFSLKLSSVTAEDTATYYCTRSSYDYDVLDYWGQGTTVTVSS VL: DIQMTQSPSSLSASVGDRVTITCRASQDISNFLNWYQQKPGQPVKLLIYYTSRLHSGVPSRFSGSGSGTDFTLTISSLQPEDFATYFCQQGHTLPYTFGQGTKLEIKR | 1.14 | 2.2 | 2.9 | 2.26 |
| 5H12 (VH5-C33D/Vk4) Fab conjugated to DMPK-targeting oligonucleotide ASO300 (Fab, V domains shown, Fab covalently conjugated to ASO300; also called 5H12 (VH5-C33D/Vk4) conjugate) VH: QVQLVQSGAEVKKPGASVKVSCKASGYSFTDYDINWVRQAPGQGLEWMGWIYPGSGNTRYSERFKGRVTITRDTSASTAYMELSSLRSEDTAVYYCAREDYYPYHGMDYWGQGTLVTVSS VL: DIVMTQSPDSLAVSLGERATINCRASESVDGYDNSFMHWYQQKPGQPPKLLIFRASNLESGVPDRFSGSGSGTDFTLTISSLQAEDVAVYYCQQSSEDPWTFGQGTKLEIKR | 110 | 110 | 10.2 | 10.2 |
| 3A4 (VH3-N54S/Vk4) Fab conjugated to DMPK-targeting oligonucleotide ASO300 (Fab, V domains shown, Fab covalently conjugated to ASO300; also called 3A4 (VH3-N54S/Vk4) conjugate) VH: EVQLVQSGSELKKPGASVKVSCTASGFNIKDDYMYWVRQPPGKGLEWIGWIDPESGDTEYASKFQDRVTVTADTSTNTAYMELSSLRSEDTAVYYCTLWLRRGLDYWGQGTLVTVSS VL: DIVMTQSPLSLPVTPGEPASISCRSSKSLLHSNGYTYLFWFQQRPGQSPRLLIYRMSNLASGVPDRFSGSGSGTDFTLKISRVEAEDVGVYYCMQHLEYPFTFGGGTKVEIKR | 2.71 | 2.9 | 7.8 | 4.1 |
| 3A4 (VH3-N54T/Vk4) Fab conjugated to DMPK-targeting oligonucleotide ASO300 (Fab, V domains shown, Fab covalently conjugated to ASO300; also called 3A4 (VH3-N54T/Vk4) conjugate) VH: EVQLVQSGSELKKPGASVKVSCTASGFNIKDDYMYWVRQPPGKGLEWIGWIDPETGDTEYASKFQDRVTVTADTSTNTAYMELSSLRSEDTAVYYCTLWLRRGLDYWGQGTLVTVSS VL: DIVMTQSPLSLPVTPGEPASISCRSSKSLLHSNGYTYLFWFQQRPGQSPRLLIYRMSNLASGVPDRFSGSGSGTDFTLKISRVEAEDVGVYYCMQHLEYPFTFGGGTKVEIKR |  | 2.8 | 4.7 | 5.12 |

Continued by falling EC50 [2], values first:

| EC50 [1] [nM] | EC50 [2] [nM] | EC50 [3] [nM] | EC50 [4] [nM] | Binder |
| --- | --- | --- | --- | --- |
|  | 33.4 | 2.3 |  | 5H12 (VH5-C33Y/Vk3) Fab conjugated to DMPK-targeting oligonucleotide ASO300 (Fab, V domains shown, Fab covalently conjugated to ASO300; also called 5H12 (VH5-C33Y/Vk3) conjugate) VH: QVQLVQSGAEVKKPGASVKVSCKASGYSFTDYYINWVRQAPGQGLEWMGWIYPGSGNTRYSERFKGRVTITRDTSASTAYMELSSLRSEDTAVYYCAREDYYPYHGMDYWGQGTLVTVSS VL: DIVLTQSPDSLAVSLGERATINCRASESVDGYDNSFMHWYQQKPGQPPKLLIFRASNLESGVPDRFSGSGSRTDFTLTISSLQAEDVAVYYCQQSSEDPWTFGQGTKLEIKR |
| 13.9 | 23.7 |  | 13.9 | 5H12 (VH5-C33Y/Vk4) Fab conjugated to DMPK-targeting oligonucleotide ASO300 (Fab, V domains shown, Fab covalently conjugated to ASO300) VH: QVQLVQSGAEVKKPGASVKVSCKASGYSFTDYYINWVRQAPGQGLEWMGWIYPGSGNTRYSERFKGRVTITRDTSASTAYMELSSLRSEDTAVYYCAREDYYPYHGMDYWGQGTLVTVSS VL: DIVMTQSPDSLAVSLGERATINCRASESVDGYDNSFMHWYQQKPGQPPKLLIFRASNLESGVPDRFSGSGSGTDFTLTISSLQAEDVAVYYCQQSSEDPWTFGQGTKLEIKR |
| 2.84 | 2.8 | 7.6 | 7.59 | 3A4 (VH3/Vk4) Fab conjugated to DMPK-targeting oligonucleotide ASO300 (Fab, V domains shown, Fab covalently conjugated to ASO300; also called 3A4 (VH3/Vk4) conjugate) VH: EVQLVQSGSELKKPGASVKVSCTASGFNIKDDYMYWVRQPPGKGLEWIGWIDPENGDTEYASKFQDRVTVTADTSTNTAYMELSSLRSEDTAVYYCTLWLRRGLDYWGQGTLVTVSS VL: DIVMTQSPLSLPVTPGEPASISCRSSKSLLHSNGYTYLFWFQQRPGQSPRLLIYRMSNLASGVPDRFSGSGSGTDFTLKISRVEAEDVGVYYCMQHLEYPFTFGGGTKVEIKR |
| 1.18 | 1.7 | 2.1 | 1.85 | 3M12 (VH4/Vk3) Fab conjugated to DMPK-targeting oligonucleotide ASO300 (Fab, V domains shown, Fab covalently conjugated to ASO300; also called 3M12 (VH4/Vk3) conjugate; DMPK oligo conjugate) VH: QVQLQESGPGLVKPSQTLSLTCTVTGYSITSGYYWNWIRQPPGKGLEWIGYITFDGANNYNPSLKNRVSISRDTSKNQFSLKLSSVTAEDTATYYCTRSSYDYDVLDYWGQGTTVTVSS VL: DIQMTQSPSSLSASVGDRVTITCRASQDISNFLNWYQQKPGQPVKLLIYYTSRLHSGVPSRFSGSGSGTDFTLTISSLQPEDFATYYCQQGHTLPYTFGQGTKLEIKR |

— patent US20230051954A1 (published 2023)
